Positions count from the first letter of the chain named.
T1: human DLL3 on SHP-77 cells (human, UniProt Q9NYJ7 27-618)
T1 construct: also called DLL3-expressing cells (SHP-77)
T1 sequence: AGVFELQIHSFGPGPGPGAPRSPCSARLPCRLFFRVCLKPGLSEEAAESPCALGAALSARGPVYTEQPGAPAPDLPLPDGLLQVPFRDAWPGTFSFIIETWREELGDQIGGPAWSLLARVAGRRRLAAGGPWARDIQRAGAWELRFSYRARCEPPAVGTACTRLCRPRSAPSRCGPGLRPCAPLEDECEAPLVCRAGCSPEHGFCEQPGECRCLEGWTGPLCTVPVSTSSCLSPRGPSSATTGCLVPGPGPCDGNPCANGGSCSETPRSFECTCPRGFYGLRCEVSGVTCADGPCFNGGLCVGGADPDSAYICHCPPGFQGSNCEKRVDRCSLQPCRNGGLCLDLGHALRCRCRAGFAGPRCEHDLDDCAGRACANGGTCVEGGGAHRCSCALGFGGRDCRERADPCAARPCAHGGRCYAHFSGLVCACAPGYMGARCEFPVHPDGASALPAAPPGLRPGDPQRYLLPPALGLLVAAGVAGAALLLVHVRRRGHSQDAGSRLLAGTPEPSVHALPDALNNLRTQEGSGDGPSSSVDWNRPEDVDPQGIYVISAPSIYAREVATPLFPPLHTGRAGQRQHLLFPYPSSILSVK

T2: human DLL3 antigen protein (Kactus Biosystems, Cat. No. DLL-HM103) (human, UniProt Q9NYJ7 27-492)
T2 sequence: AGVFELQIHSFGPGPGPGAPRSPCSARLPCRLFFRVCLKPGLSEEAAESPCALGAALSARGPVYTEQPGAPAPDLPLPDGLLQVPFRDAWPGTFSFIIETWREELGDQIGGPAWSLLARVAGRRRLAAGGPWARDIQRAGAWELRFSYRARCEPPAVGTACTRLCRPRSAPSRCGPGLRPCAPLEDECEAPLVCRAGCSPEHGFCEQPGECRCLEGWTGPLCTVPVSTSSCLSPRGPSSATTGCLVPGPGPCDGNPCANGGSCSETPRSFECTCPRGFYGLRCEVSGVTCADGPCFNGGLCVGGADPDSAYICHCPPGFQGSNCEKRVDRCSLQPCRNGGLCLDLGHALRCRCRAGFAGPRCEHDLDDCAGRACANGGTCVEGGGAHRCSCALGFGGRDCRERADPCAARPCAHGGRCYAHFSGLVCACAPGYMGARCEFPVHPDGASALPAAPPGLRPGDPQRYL

B1: hDLL3-3-1 camelid-derived humanized anti-DLL3 antibody (antibody, human IgG1, V domains shown)
VH: EVQLVESGGGLVQPGGSLRLSCAASTYTISSGYMGWFRQAPGKEREGVAAIYIGGSTTLYADSVKGRFTISRDNSKNTLYLQMNSLRAEDTAVYYCAAQLRPNSAYHPLDGRKYNYWGQGTLVTVSS
B2: hDLL3-3-2 camelid-derived humanized anti-DLL3 antibody (antibody, V domains shown)
VH: B1 VH with A23K, A24S, S25P
B3: DLL3-26 camelid-derived anti-DLL3 chimeric antibody (antibody, human IgG1, V domains shown)
VH: QVQLVESGGGSVQAGGSLRLSCAASGDIYSSSYVGWFRQAPGKEREGVAIIYTSGDSTYYANSVKGRFTISQDKAKKTLYLQMNSLKPEDTAMYYCAARFAIDNSNYWGQGTQVTVSS
B4: hDLL3-26 camelid-derived humanized anti-DLL3 antibody (antibody, V domains shown)
VH: EVQLVESGGGLVQPGGSLRLSCAASGDIYSSSYVGWFRQAPGKEREGVAIIYTSGDSTYYADSVKGRFTISRDNSKNTLYLQMNSLRAEDTAVYYCAARFAIDNSNYWGQGTLVTVSS
B5: DLL3-122 camelid-derived anti-DLL3 chimeric antibody (antibody, human IgG1, V domains shown)
VH: QVQLVESGGGSVQAGGSLRLSCTASGDTYRSYCMGWFRKAPGKEREGVADIVSDGSTSYADSVKGRFTISKDNAKNTLYLQMNSLKPEDTAMYYCAVDRGGSGGYCYTGRYDYWGQGTQVTVSS
B6: hDLL3-122 camelid-derived humanized anti-DLL3 antibody (antibody, V domains shown)
VH: EVQLVESGGGLVQPGGSLRLSCAASGDTYRSYCMGWFRQAPGKEREGVADIVSDGSTSYADSVKGRFTISRDNSKNTLYLQMNSLRAEDTAVYYCAVDRGGSGGYCYTGRYDYWGQGTLVTVSS
B7: DLL3-3 camelid-derived anti-DLL3 chimeric antibody (antibody, human IgG1, V domains shown)
VH: DVQLVESGGGSVQAGGSLKLSCKSPTYTISSGYMGWFRQAPGKEREGVAAIYIGGSTTLYADSVKGRFTISADNAEKTVYLQMNTLKPEDSAMYYCAAQLRPNSAYHPLDGRKYNYWGQGTQVTVSS

These binders were tested against T1, human DLL3 on SHP-77 cells (assay: flow cytometry, SHP-77 cells).
Protocol: SHP-77 and HEK293-cyno DLL3 cells were cultured. The culture medium for SHP-77 cells were RPMI1640+10% FBS, and the culture medium for HEK293 cyno DLL3 cells were DMEM+10% FBS+200 μg/ml Hygromycin. The cells were cultured in a T75 cell culture flask at a 37° C. 5% CO₂ incubator. When using cells, they are washed with sterile DPBS, digested with 0.25% trypsin EDTA for about 5 minutes, and then stopped with a complete medium.
The digested cells were centrifuged at 1000 rpm for 5 min at room temperature. The supernatant was discarded and the cells were resuspended in 100 μL of 1% BSA (in PBS). The cells were counted and adjusted to a cell density of 1E6/m. The dilute cells were seeded in a 96-well round-bottom culture plate (corning 3799), and centrifuged at 1500 rpm for 5 min at 4° C. The supernatant was discarded and the cells were stored at 4° C. until use. Antibody samples to be tested were diluted with 1% BSA (in PBS) at a starting concentration of 100 nM, downwards by a 10-fold gradient for 7 concentrations. The cells were resuspended with the diluted antibody at 100 μL/well and incubated for 1 hour at 4° C. The cells were centrifuged at 1500 rpm for 5 minutes at 4° C. and the supernatant was discarded. The cells were resuspended and washed with 160 μL of 1% BSA (in PBS), centrifuged at 1500 rpm for 5 minutes at 4° C. The supernatant was discarded. The secondary antibody (goat anti human IgG Fc PE) was diluted 1:200 with 1% BSA (in PBS) according to the manufacturer's instructions and the cells were resuspended with the diluted secondary antibody, 100 μL/well, and incubated for 0.5 h at 4° C. The cells were centrifuged at 1500 rpm for 5 minutes at 4° C. and the supernatant was discarded. The cells were resuspended and washed with 160 μL of 1% BSA (in PBS), centrifuged at 1500 rpm for 5 minutes at 4° C. The supernatant was discarded. The cells were resuspended in 100 μL of 1% BSA (in PBS), and filtered across a 300 mesh gauze. The mean fluorescence intensity of the PE channels was measured by flow cytometry.
The analyzed mean fluorescence intensity was imported into Graphpad to analyze the median-binding concentration (hereinafter referred to as EC50) of antibody and cell and the top mean fluorescence intensity (Top MFI).

Binder | EC50 | Top MFI
B1 | 0.086 nM | 702 MFI
B2 | 0.049 nM | 691 MFI
B3 | 0.499 nM | 841 MFI
B4 | 0.786 nM | 696 MFI
B5 | 0.478 nM | 877 MFI
B6 | 0.589 nM | 778 MFI
B7 | 0.061 nM | 864 MFI

Each binder was assayed against T2, human DLL3 antigen protein (Kactus …) (assay: SPR (Biacore 8K), antibody captured on anti-human Fc, DLL3 in solution).
Protocol: The affinity and kinetic properties of the humanized anti-DLL3 antibody to human DLL3 were analyzed using a Biacore 8K instrument. CM5 chips were activated with EDC and NHS, followed by immobilization of anti-human Fc murine mAb and blocked with ethanolamine.
Human DLL3 was diluted two-fold serially to serial concentrations (100 nM-0.39 nM) and associated for 90 s and dissociated for 600 s at a flow rate of 50 μL/min.
After completion of each cycle of the experiment, the captured antibody was removed together with the antigen by washing with a 3M MgCl₂ solution at a flow rate of 30 μL/min for 30 s to complete the regeneration of the chip. The raw data were analyzed using Biacore Insight Evaluation Software (3.0.12.15655) software and fitted with a (1:1) Langmuir model.

Binder | Kd | koff | kon
B1 | 0.304 nM | 0.00058 s⁻¹ | 1.91e+06 M⁻¹ s⁻¹
B2 | 0.399 nM | 0.000776 s⁻¹ | 1.95e+06 M⁻¹ s⁻¹
B3 | 0.0322 nM | 1.23e-05 s⁻¹ | 382000 M⁻¹ s⁻¹
B4 | 1.69 nM | 0.000355 s⁻¹ | 210000 M⁻¹ s⁻¹
B5 | 4.21 nM | 0.000392 s⁻¹ | 93200 M⁻¹ s⁻¹
B6 | 4.73 nM | 0.000466 s⁻¹ | 98500 M⁻¹ s⁻¹
B7 | 0.127 nM | 0.000274 s⁻¹ | 2.15e+06 M⁻¹ s⁻¹
